Data on one molecule can be found in PMC8808280 (Nature, 2021).

The experiment concerns the target T1, Receptor-associated protein (RAP) (human, UniProt P30533 35-353).
T1 sequence (looked up): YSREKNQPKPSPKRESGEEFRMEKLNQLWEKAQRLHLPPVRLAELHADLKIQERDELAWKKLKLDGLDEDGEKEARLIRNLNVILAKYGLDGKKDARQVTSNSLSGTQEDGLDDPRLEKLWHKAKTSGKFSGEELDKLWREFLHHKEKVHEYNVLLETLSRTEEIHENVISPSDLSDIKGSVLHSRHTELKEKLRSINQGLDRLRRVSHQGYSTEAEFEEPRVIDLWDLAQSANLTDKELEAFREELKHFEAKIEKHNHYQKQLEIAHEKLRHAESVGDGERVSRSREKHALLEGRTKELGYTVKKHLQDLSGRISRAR
Kind of experiment: BLI.

B1: ApoER2 isoform 1 LBD-Fc fusion protein (Fc fusion)
chain: not shown
Regarding B1, the binding result is “binds”.
